Key:
[1] = target: the molecule itself; assay: cross-linking; intracellular BMOE (2 mM, internal perfusion or injection) in Xenopus oocytes; SDS-PAGE under reducing conditions, anti-ASIC1a western blot
[2] = target: the molecule itself; assay: cross-linking; BMOE (0.5 or 2 mM) at the cell surface of Xenopus oocytes and CHO cells before lysis, cell-surface biotinylated fractions, SDS-PAGE under reducing conditions, anti-ASIC1a western blot; band intensities pooled over oocytes and CHO cells
[3] = target: the molecule itself; assay: cross-linking; 2 mM BMOE at the cell surface of intact Xenopus oocytes, cell-surface biotinylation, streptavidin beads, SDS-PAGE under reducing conditions, anti-His-tag western blot (ΔCCt background)

B1: wild type human ASIC1a (H8-ASIC1a) (natural protein, UniProt P78348-2 1-528, looked up)
chain: MELKAEEEEVGGVQPVSIQAFASSSTLHGLAHIFSYERLSLKRALWALCFLGSLAVLLCVCTERVQYYFHYHHVTKLDEVAASQLTFPAVTLCNLNEFRFSQVSKNDLYHAGELLALLNNRYEIPDTQMADEKQLEILQDKANFRSFKPKPFNMREFYDRAGHDIRDMLLSCHFRGEVCSAEDFKVVFTRYGKCYTFNSGRDGRPRLKTMKGGTGNGLEIMLDIQQDEYLPVWGETDETSFEAGIKVQIHSQDEPPFIDQLGFGVAPGFQTFVACQEQRLIYLPPPWGTCKAVTMDSDLDFFDSYSITACRIDCETRYLVENCNCRMVHMPGDAPYCTPEQYKECADPALDFLVEKDQEYCVCEMPCNLTRYGKELSMVKIPSKASAKYLAKKFNKSEQYIGENILVLDIFFEVLNYETIEQKKAYEIAGLLGDIGGQMGLFIGASILTVLELFDYAYEVIKHKLCRRGKCQKEAKRSSADKGVALSLDDVKRHNPCESLRGHPAGMTYAANILPHHPARGTFEDFTC
notes: ends with the terminal Cys (C528); Same construct expressed in two hosts; the printed band intensities pool oocytes and CHO cells; also called ASIC1a wt; hASIC1a; source: Xenopus laevis oocytes, cRNA injected; CHO-K1 cells, transfected; not shown: His8, N-terminal, kept
Which “stoichiometry N” value [1] does the source give for B1 here?
The value was 4.

B2: ASIC1a G433C (with intact C-terminal cysteines) (natural protein, human, UniProt P78348-2 1-528, looked up)
chain: MELKAEEEEVGGVQPVSIQAFASSSTLHGLAHIFSYERLSLKRALWALCFLGSLAVLLCVCTERVQYYFHYHHVTKLDEVAASQLTFPAVTLCNLNEFRFSQVSKNDLYHAGELLALLNNRYEIPDTQMADEKQLEILQDKANFRSFKPKPFNMREFYDRAGHDIRDMLLSCHFRGEVCSAEDFKVVFTRYGKCYTFNSGRDGRPRLKTMKGGTGNGLEIMLDIQQDEYLPVWGETDETSFEAGIKVQIHSQDEPPFIDQLGFGVAPGFQTFVACQEQRLIYLPPPWGTCKAVTMDSDLDFFDSYSITACRIDCETRYLVENCNCRMVHMPGDAPYCTPEQYKECADPALDFLVEKDQEYCVCEMPCNLTRYGKELSMVKIPSKASAKYLAKKFNKSEQYIGENILVLDIFFEVLNYETIEQKKAYEIAGLLCDIGGQMGLFIGASILTVLELFDYAYEVIKHKLCRRGKCQKEAKRSSADKGVALSLDDVKRHNPCESLRGHPAGMTYAANILPHHPARGTFEDFTC
notes: human ASIC1a with G433C, C-terminal cysteines intact; The methods describe G433C only on the ΔCCt template; the results say that this G433C has intact C-terminal cysteines; source: Xenopus laevis oocytes, cRNA injected; CHO-K1 cells, transfected; not shown: His8, N-terminal, kept
How did the “stoichiometry N” value [2] turn out when B2 was run?
The value was 4.

B3: ASIC1a-ΔCCt (H8-hASIC1a-C466A/C471A/C497A/C528Stop) (natural protein, human, UniProt P78348-2 1-527, looked up)
chain: MELKAEEEEVGGVQPVSIQAFASSSTLHGLAHIFSYERLSLKRALWALCFLGSLAVLLCVCTERVQYYFHYHHVTKLDEVAASQLTFPAVTLCNLNEFRFSQVSKNDLYHAGELLALLNNRYEIPDTQMADEKQLEILQDKANFRSFKPKPFNMREFYDRAGHDIRDMLLSCHFRGEVCSAEDFKVVFTRYGKCYTFNSGRDGRPRLKTMKGGTGNGLEIMLDIQQDEYLPVWGETDETSFEAGIKVQIHSQDEPPFIDQLGFGVAPGFQTFVACQEQRLIYLPPPWGTCKAVTMDSDLDFFDSYSITACRIDCETRYLVENCNCRMVHMPGDAPYCTPEQYKECADPALDFLVEKDQEYCVCEMPCNLTRYGKELSMVKIPSKASAKYLAKKFNKSEQYIGENILVLDIFFEVLNYETIEQKKAYEIAGLLGDIGGQMGLFIGASILTVLELFDYAYEVIKHKLARRGKAQKEAKRSSADKGVALSLDDVKRHNPAESLRGHPAGMTYAANILPHHPARGTFEDFT
notes: human ASIC1a lacking the cysteines of the C-terminus; C528Stop removes the last residue; also called Ctrl; source: Xenopus laevis oocytes, cRNA injected; not shown: His8, N-terminal, kept
With B3 as the protein, how does the “stoichiometry N” value [3] read?
Its value is 2.

B4: G433C-ΔCCt (natural protein, human, UniProt P78348 1-527, looked up)
chain: MELKAEEEEVGGVQPVSIQAFASSSTLHGLAHIFSYERLSLKRALWALCFLGSLAVLLCVCTERVQYYFHYHHVTKLDEVAASQLTFPAVTLCNLNEFRFSQVSKNDLYHAGELLALLNNRYEIPDTQMADEKQLEILQDKANFRSFKPKPFNMREFYDRAGHDIRDMLLSCHFRGEVCSAEDFKVVFTRYGKCYTFNSGRDGRPRLKTMKGGTGNGLEIMLDIQQDEYLPVWGETDETSFEAGIKVQIHSQDEPPFIDQLGFGVAPGFQTFVACQEQRLIYLPPPWGTCKAVTMDSDLDFFDSYSITACRIDCETRYLVENCNCRMVHMPGDAPYCTPEQYKECADPALDFLVEKDQEYCVCEMPCNLTRYGKELSMVKIPSKASAKYLAKKFNKSEQYIGENILVLDIFFEVLNYETIEQKKAYEIAGLLCDIGGQMGLFIGASILTVLELFDYAYEVIKHKLARRGKAQKEAKRSSADKGVALSLDDVKRHNPAESLRGHPAGMTYAANILPHHPARGTFEDFT
notes: human ASIC1a, ΔCCt background (C528Stop removes the last residue) with G433C; source: Xenopus laevis oocytes, cRNA injected; not shown: His8, N-terminal, kept
Which “stoichiometry N” value [3] does the source give for B4 here?
Its value is 4.

B5: G430C-ΔCCt (natural protein, human, UniProt P78348 1-527, looked up)
chain: MELKAEEEEVGGVQPVSIQAFASSSTLHGLAHIFSYERLSLKRALWALCFLGSLAVLLCVCTERVQYYFHYHHVTKLDEVAASQLTFPAVTLCNLNEFRFSQVSKNDLYHAGELLALLNNRYEIPDTQMADEKQLEILQDKANFRSFKPKPFNMREFYDRAGHDIRDMLLSCHFRGEVCSAEDFKVVFTRYGKCYTFNSGRDGRPRLKTMKGGTGNGLEIMLDIQQDEYLPVWGETDETSFEAGIKVQIHSQDEPPFIDQLGFGVAPGFQTFVACQEQRLIYLPPPWGTCKAVTMDSDLDFFDSYSITACRIDCETRYLVENCNCRMVHMPGDAPYCTPEQYKECADPALDFLVEKDQEYCVCEMPCNLTRYGKELSMVKIPSKASAKYLAKKFNKSEQYIGENILVLDIFFEVLNYETIEQKKAYEIACLLGDIGGQMGLFIGASILTVLELFDYAYEVIKHKLARRGKAQKEAKRSSADKGVALSLDDVKRHNPAESLRGHPAGMTYAANILPHHPARGTFEDFT
notes: human ASIC1a, ΔCCt background (C528Stop removes the last residue) with G430C; source: Xenopus laevis oocytes, cRNA injected; not shown: His8, N-terminal, kept
How did the “stoichiometry N” value [3] turn out when B5 was run?
The value was 4.

B6: V74C-ΔCCt (natural protein, human, UniProt P78348 1-527, looked up)
chain: MELKAEEEEVGGVQPVSIQAFASSSTLHGLAHIFSYERLSLKRALWALCFLGSLAVLLCVCTERVQYYFHYHHCTKLDEVAASQLTFPAVTLCNLNEFRFSQVSKNDLYHAGELLALLNNRYEIPDTQMADEKQLEILQDKANFRSFKPKPFNMREFYDRAGHDIRDMLLSCHFRGEVCSAEDFKVVFTRYGKCYTFNSGRDGRPRLKTMKGGTGNGLEIMLDIQQDEYLPVWGETDETSFEAGIKVQIHSQDEPPFIDQLGFGVAPGFQTFVACQEQRLIYLPPPWGTCKAVTMDSDLDFFDSYSITACRIDCETRYLVENCNCRMVHMPGDAPYCTPEQYKECADPALDFLVEKDQEYCVCEMPCNLTRYGKELSMVKIPSKASAKYLAKKFNKSEQYIGENILVLDIFFEVLNYETIEQKKAYEIAGLLGDIGGQMGLFIGASILTVLELFDYAYEVIKHKLARRGKAQKEAKRSSADKGVALSLDDVKRHNPAESLRGHPAGMTYAANILPHHPARGTFEDFT
notes: human ASIC1a, ΔCCt background (C528Stop removes the last residue) with V74C; source: Xenopus laevis oocytes, cRNA injected; not shown: His8, N-terminal, kept
How did the “stoichiometry N” value [3] turn out when B6 was run?
The value was 4.

B7: Y426C-ΔCCt (natural protein, human, UniProt P78348 1-527, looked up)
chain: MELKAEEEEVGGVQPVSIQAFASSSTLHGLAHIFSYERLSLKRALWALCFLGSLAVLLCVCTERVQYYFHYHHVTKLDEVAASQLTFPAVTLCNLNEFRFSQVSKNDLYHAGELLALLNNRYEIPDTQMADEKQLEILQDKANFRSFKPKPFNMREFYDRAGHDIRDMLLSCHFRGEVCSAEDFKVVFTRYGKCYTFNSGRDGRPRLKTMKGGTGNGLEIMLDIQQDEYLPVWGETDETSFEAGIKVQIHSQDEPPFIDQLGFGVAPGFQTFVACQEQRLIYLPPPWGTCKAVTMDSDLDFFDSYSITACRIDCETRYLVENCNCRMVHMPGDAPYCTPEQYKECADPALDFLVEKDQEYCVCEMPCNLTRYGKELSMVKIPSKASAKYLAKKFNKSEQYIGENILVLDIFFEVLNYETIEQKKACEIAGLLGDIGGQMGLFIGASILTVLELFDYAYEVIKHKLARRGKAQKEAKRSSADKGVALSLDDVKRHNPAESLRGHPAGMTYAANILPHHPARGTFEDFT
notes: human ASIC1a, ΔCCt background (C528Stop removes the last residue) with Y426C; also called Y426C-CCt; source: Xenopus laevis oocytes, cRNA injected; not shown: His8, N-terminal, kept
With B7 as the protein, how does the “stoichiometry N” value [3] read?
Its value is 4.

From publication PMC4529235, “The Human Acid-Sensing Ion Channel ASIC1a: Evidence for a Homotetrameric Assembly State at the Cell Surface” (PLoS ONE, 2015)
